Experimental data published in publication PMC4370734.
“And” between values parts separate entries of the source, which are not always exact repeats. Equal values may be shown once.

Key:
Experiment in all cases: AUC; sedimentation velocity, 0.3 mg/mL, 20 mM Tris/HCl, 500 mM sodium chloride, 5 mM DTT, 0.4% CHAPS, pH 8.0, 42,000 rpm, 20°C; c(S) analysis with Sedfit; monomer, dimer, trimer and higher species
[1] = target: human full-length mutant Htt with 128Qs, C-terminally fused with a FLAG-His (FH) affinity tag (human) (UniProt P42858)
P42858 = tested on: P42858
[2] = target: human full-length normal Htt with 17Qs, C-terminally fused with a FLAG-His affinity tag (human) (UniProt P42858)

## human full-length mutant Htt with 128Qs, C-terminally fused with a FLAG-His (FH) affinity tag, P42858 1-3142
[1]
  fraction of dimer: 20%
  fraction of monomer: 35.6%
  fraction of trimer: 17.3%
  stoichiometry N: 2 and 3

## human full-length mutant Htt with 128Qs, C-terminally fused with a FLAG-His (FH) affinity tag
P42858
  fraction of aggregates: also of aggregates (23.6% versus 9.9%)

## human full-length normal Htt with 17Qs, C-terminally fused with a FLAG-His affinity tag
P42858
  fraction of aggregates: also of aggregates (23.6% versus 9.9%)

## human full-length normal Htt with 17Qs, C-terminally fused with a FLAG-His affinity tag, P42858 1-3142
[2]
  fraction of dimer: 20%
  fraction of monomer: 52.1%
  fraction of trimer: 8.8%
  stoichiometry N: 2 and 3
